According to PMC3280358:

Key:
Nbs1 1-382 = Nbs1 1-382 (UniProt O60934); test: ITC
Nbs1 = Nbs1 (UniProt O60934); test: far-western with FLAG-Nbs1; details: reference: nonphosphorylated NTD; sites T13

Rad51 NTD peptide (from UniProt Q06609) pT13 peptide
KD (Nbs1 1-382; reference: nonphosphorylated peptide, sites T13): gained; reference no detectable binding

Rad51 NTD peptide (from UniProt Q06609) pT13/pS14 peptide
KD (Nbs1 1-382; reference: pS14 peptide, sites T13): gained; reference no detectable binding | KD (Nbs1 1-382; reference: pT13 peptide, sites S14): weaker; reference around 20

Rad51 NTD, 1-86 (from UniProt Q06609) CK2-phosphorylated NTD
binding against the reference (Nbs1): gained
